From CN117567625A (INST MED BIOTECHNOLOGY CAMS, dated 2024) come the findings set out here.

For this experiment, the target named is T1, Claudin18.2 on 人胃癌NUGC4细胞 (human, UniProt P56856-2 1-261).
T1 construct: whole, on cells
T1 sequence (looked up): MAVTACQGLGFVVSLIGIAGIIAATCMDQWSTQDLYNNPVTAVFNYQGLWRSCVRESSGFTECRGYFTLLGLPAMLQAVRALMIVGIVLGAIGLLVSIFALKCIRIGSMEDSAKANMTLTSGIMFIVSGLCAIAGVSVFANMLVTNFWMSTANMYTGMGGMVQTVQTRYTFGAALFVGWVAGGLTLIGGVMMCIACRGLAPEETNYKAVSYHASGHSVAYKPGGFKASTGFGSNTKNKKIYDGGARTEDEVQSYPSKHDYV
Nature of the experiment: flow cytometry on NUGC4 cells, anti-mouse IgG Fc-FITC. (In general: In flow cytometry, cells or beads pass a laser one at a time.)

B1: 抗Claudin18.2小鼠单克隆抗体m1D6 (antibody, V domains shown)
VH: QVQLQQPGPELVMPGASVKLSCKASGYTFTSYRMHWVKQRPGQGLEWIGEIDPSNSYTNYNQNFRGRSTLTVDKSSSTAYMQLSSLTSGDSAVYYCARLGRGNTLGYWGQGTSVTVSS
VL: DIVMTQSPSSLTVTAGEKVTVGCKSSQSLLNSGNQKNYLTWYQQKPGQPPKLLIYWASTRESGVPDRFTGSGSGTDFTLTIRSVQAEDLAVYYCQNGYSYPFTFGSGTKLEIKR
notes: Both printed entries appear to start with a leader peptide ahead of the variable region; For in vivo imaging the antibody was labelled with Dylight680
Take B1: the binding result is “binds”.
